Test results: paper PMC4172209 (2014)
Each block holds one molecule with its values, some of them ahead of it. Where no end group is shown, it is not given here. The star is where a group is joined. FITC = O=C1OC2(c3ccc(O)cc3Oc3cc(O)ccc32)c2ccc(NC(=S)*)cc21; βAla = NCCC(=O)O

What was measured:
[1] = target: NHERF1 PDZ1 (Homo sapiens) (UniProt O14745); details: cited from earlier work
[2] = target: T1, PTH1R C-terminal peptide (FITC-PTH1Rct) (Homo sapiens); assay: fluorescence polarization
T1 chain: {FITC-βAla}-PERPPALLQEEWETVM

Molecule: PTH1R C-terminal peptide C-terminus (from UniProt Q03431)
- Kd [1]: 11 µM

- Kd [2]: 19 µM
B1: NHERF1 PDZ1 1-140 (protein)
chain: MSADAAAGAPLPRLCCLEKGPNGYGFHLHGEKGKLGQYIRLVEPGSPAEKAGLLAGDRLVEVNGENVEKETHQQVVSRIRAALNAVRLLVVDPETDEQLQKLGVQVREELLRAQEAPGQAEPPAAAEVQGAGNENEPREA
